Target: T1, ankyrin-repeat-, SH3-domain- and proline-rich-region-containing protein 2 (ASPP2), FLAG-tagged (UniProt Q8CG79 1-1128)
T1 construct: ASPP2, FLAG-tagged, co-expressed with HA-MAGI-3 in a heterologous expression system; HEK293 is probably the host; also called FLAG-ASPP2; source: heterologous expression system, in lysate
T1 sequence (looked up): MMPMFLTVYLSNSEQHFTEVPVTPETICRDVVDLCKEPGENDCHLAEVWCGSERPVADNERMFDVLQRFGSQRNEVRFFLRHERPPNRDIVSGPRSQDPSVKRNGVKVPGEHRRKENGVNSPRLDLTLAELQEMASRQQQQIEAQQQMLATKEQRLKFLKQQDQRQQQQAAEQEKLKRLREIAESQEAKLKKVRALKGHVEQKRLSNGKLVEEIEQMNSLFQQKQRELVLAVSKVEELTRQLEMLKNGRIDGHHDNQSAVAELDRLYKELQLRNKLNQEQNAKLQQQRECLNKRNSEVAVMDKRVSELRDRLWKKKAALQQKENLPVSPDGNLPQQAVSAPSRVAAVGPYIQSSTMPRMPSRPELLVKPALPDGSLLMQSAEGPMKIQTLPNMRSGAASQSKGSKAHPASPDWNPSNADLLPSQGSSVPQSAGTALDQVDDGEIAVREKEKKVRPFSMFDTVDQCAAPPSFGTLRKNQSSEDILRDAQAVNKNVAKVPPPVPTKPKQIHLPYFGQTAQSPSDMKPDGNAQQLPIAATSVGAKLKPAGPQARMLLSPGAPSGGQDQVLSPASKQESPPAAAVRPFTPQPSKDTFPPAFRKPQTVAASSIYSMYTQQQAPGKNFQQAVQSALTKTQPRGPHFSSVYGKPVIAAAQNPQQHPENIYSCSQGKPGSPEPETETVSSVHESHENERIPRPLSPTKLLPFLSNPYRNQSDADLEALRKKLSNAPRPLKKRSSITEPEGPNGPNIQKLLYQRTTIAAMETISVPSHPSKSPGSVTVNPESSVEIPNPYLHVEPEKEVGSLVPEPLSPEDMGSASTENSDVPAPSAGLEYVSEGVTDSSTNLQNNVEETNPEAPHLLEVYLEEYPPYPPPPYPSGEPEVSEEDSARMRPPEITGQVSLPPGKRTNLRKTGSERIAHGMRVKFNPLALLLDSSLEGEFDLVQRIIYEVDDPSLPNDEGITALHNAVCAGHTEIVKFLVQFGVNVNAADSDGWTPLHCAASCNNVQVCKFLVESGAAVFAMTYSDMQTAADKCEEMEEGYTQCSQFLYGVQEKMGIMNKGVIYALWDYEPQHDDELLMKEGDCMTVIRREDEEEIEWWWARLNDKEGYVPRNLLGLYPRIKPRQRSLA
Assay: co-IP; FLAG immunoprecipitation in a heterologous expression system; FLAG-ASPP2 and HA-MAGI-3 co-expressed with GFP-RASSF10; 20 mM Tris-HCl pH 7.5, 150 mM NaCl, 1% Triton X-100; blot quantified, normalised to GFP control
Conditions: partners not purified

B1: MAGI-3 (natural protein, UniProt Q9EQJ9 1-1476, looked up)
chain: MSKTLKKKKHWLSKVQECAVSWAGPPGDLGAEIRGGAERGEFPYLGRLRDEAGGGGGTCCVVSGKAPSPGDVLLEVNGTPVSGLTNRDTLAVIRHFREPIRLKTVKPGKVINKDLRHYLSLQFQKGSIDHKLQQVIRDNLYLRTIPCTTRAPRDGEVPGVDYNFISVEQFKALEESGALLESGTYDGNFYGTPKPPAEPSPFQPDPVDQVLFDNEFDTESQRKRTTSVSKMERMDSSLPEEEEDEDKEAVNGSGSMETREMHSETSDCWMKTVPSYNQTNSSMDFRNYMMRDENLEPLPKNWEMAYTDTGMIYFIDHNTKTTTWLDPRLCKKAKAPEDCEDGELPYGWEKIEDPQYGTYYVDHLNQKTQFENPVEEAKRKKQLGQAEIHSAKTDVERAHFTRDPSQLKGVLVRASLKKSTMGFGFTIIGGDRPDEFLQVKNVLKDGPAAQDGKIAPGDVIVDINGNCVLGHTHADVVQMFQLVPVNQYVNLTLCRGYPLPDDSEDPVVDIVAATPVINGQSLTKGETCMNTQDFKLGAMVLDQNGKSGQILASDRLNGPSESSEQRASLASSGSSQPELVTIPLIKGPKGFGFAIADSPTGQKVKMILDSQWCQGLQKGDIIKEIYHQNVQNLTHLQVVEVLKQFPVGADVPLLILRGGPCSPTKTAKTKTDTKENSGSLETINEPIPQPMPFPPSIIRSGSPKLDPSEVYLKSKTLYEDKPPNTKDLDVFLRKQESGFGFRVLGGDGPDQSIYIGAIIPLGAAEKDGRLRAADELMCIDGIPVKGKSHKQVLDLMTTAARNGHVLLTVRRKIFYGEKQPEDESHQAFSQNGSPRLNRAELPTRSAPQEAYDVTLQRKENEGFGFVILTSKSKPPPGVIPHKIGRVIDGSPADRCGGLKVGDHISAVNGQSIVDLSHDNIVQLIKDAGVTVTLTVVAEEEHHGPPSGTNSARQSPALQHRPMGQAQANHIPGDRIALEGEIGRDVCSSYRHSWSDHKHLAQPDTAVISVVGSRHNQSLGCYPVELERGPRGFGFSLRGGKEYNMGLFILRLAEDGPAIKDGRIHVGDQIVEINGEPTQGITHTRAIELIQAGGNKVLLLLRPGTGLIPDHGDWDTNSPSSSNVIYDEQPPPLPSSHSASTFEESHVPATEDSLTRVQICEKAEELKDTVQEKKSTLNGSQPEMKYQSVHKTMSKKDPPRGSGHGEKSRLKGENGVTRRGRSASPKKSVNRHSEEHLEKIPRPLKSDPKEKSRDRSLSPRKGESKGRLTIKAGSGQDPYRKDRGRSSSPKKQQKIGGNSLSNTEGKLSEAGSRRAAGHPRDSTEQLPDGREKSGVSRKDLKQSQPGKTRTKSPEKKSSKVDETSLPSKKTSSTAGRVVSEKEKGKKPTAGETSRETVEHTQISAKQLKQEAQEKTALGNADDHKGRESEVTDRCRERAGCTPQSSSLVKKAPITPGPWRVPRANKVTGTTGMADKQL
notes: MAGI-3, expressed in a heterologous expression system for FLAG immunoprecipitation; HEK293 is probably the host; also called HA-MAGI-3; MAGI proteins; source: heterologous expression system, in lysate
fold co-precipitation with GFP-RASSF10 co-expressed, over GFP alone: ~4 fold

— PMC7954791, “MAGIs regulate aPKC to enable balanced distribution of intercellular tension for epithelial sheet homeostasis” (Communications Biology, 2021)
